# Experimental data as given in US8598314B2 (priority 2007, dated 2013).
# Read-outs that look alike come from different tables or passages of the source.
# Experiments:
# [1] = biological target: Recombinant DPP-IV (Homo sapiens, UniProt P27487); experiment: DPP-IV resistance assay by mass spectrometry
# Protocol: The peptides were then desalted and concentrated on a C18 peptide micro trap (Michrom Bioresources, Inc., Auburn, Calif.) prior to introduction to a LTQ FT™ mass spectrometer (Thermo-Electron Corp., Waltham, Mass.) via an autosampler (Michrom Bioresources, Inc.). Peptides were eluted from a C5 packed 75 μm fused silica pico-frit column (New Objective, Inc., Woburn, Mass.) using a 5-60% acetonitrile/water gradient over 50 minutes at a flow rate of 500 nl/min. Extracted ion mass windows for the calculated m/z values of the most dominant charge states were used to search for both the parent compound and the theoretical hydrolyzed products within a given chromatogram. Exact mass was confirmed for each charge state by FT. The percentage of hydrolysis catalyzed by DPP-IV was estimated by dividing the area of product ions by the area of the total (parent+product) ions.
# The estimated cleavage product conversion is based on the ratio of the ion extract area (indicated on top of the peaks) for [product ion]^5+ over that for total ions ([Mother Ion]^5++[product ion]^5+). The m/z ratios used to search for the expected ions are listed on the right side of the plots.
# [2] = in vivo; cited from earlier work
# Sequence of Recombinant DPP-IV (P27487 whole entry, species assumed, the tested form may be a part): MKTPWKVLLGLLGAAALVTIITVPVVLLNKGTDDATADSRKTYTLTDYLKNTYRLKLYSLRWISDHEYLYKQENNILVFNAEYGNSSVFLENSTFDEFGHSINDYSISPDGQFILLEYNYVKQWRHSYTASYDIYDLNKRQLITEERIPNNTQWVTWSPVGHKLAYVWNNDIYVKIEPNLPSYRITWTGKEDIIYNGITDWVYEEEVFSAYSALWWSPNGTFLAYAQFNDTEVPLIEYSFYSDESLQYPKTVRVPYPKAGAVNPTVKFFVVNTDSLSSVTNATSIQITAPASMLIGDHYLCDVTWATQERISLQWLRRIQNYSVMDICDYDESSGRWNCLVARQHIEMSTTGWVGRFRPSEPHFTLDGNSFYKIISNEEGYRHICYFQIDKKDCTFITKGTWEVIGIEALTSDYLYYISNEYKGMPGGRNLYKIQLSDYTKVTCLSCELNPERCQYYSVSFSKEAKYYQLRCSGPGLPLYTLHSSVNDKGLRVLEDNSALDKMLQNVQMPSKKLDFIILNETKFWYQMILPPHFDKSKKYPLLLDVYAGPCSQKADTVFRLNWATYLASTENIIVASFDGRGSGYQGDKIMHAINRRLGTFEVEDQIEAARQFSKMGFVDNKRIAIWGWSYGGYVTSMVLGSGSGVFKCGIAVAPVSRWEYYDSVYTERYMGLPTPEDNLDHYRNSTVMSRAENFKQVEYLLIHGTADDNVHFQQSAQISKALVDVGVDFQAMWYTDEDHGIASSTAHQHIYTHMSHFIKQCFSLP
compound,measurement,setting,value
"CC[C@H](C)[C@H](NC(=O)[C@H](Cc1ccccc1)NC(=O)[C@H](CCC(=O)O)NC(=O)[C@H](CCCCN)NC(=O)[C@H](C)NC(=O)[C@H](C)NC(=O)[C@H](CCC(N)=O)NC(=O)CNC(=O)[C@H](CCC(=O)O)NC(=O)[C@H](CC(C)C)NC(=O)[C@H](Cc1ccc(O)cc1)NC(=O)[C@H](CO)NC(=O)[C@H](CO)NC(=O)[C@@H](NC(=O)[C@H](CC(=O)O)NC(=O)[C@H](CO)NC(=O)[C@@H](NC(=O)[C@H](Cc1ccccc1)NC(=O)[C@@H](NC(=O)CNC(=O)[C@H](CCC(=O)O)NC(=O)[C@H](C)NC(=O)[C@@H](N)Cc1c[nH]cn1)[C@@H](C)O)[C@@H](C)O)C(C)C)C(=O)N[C@@H](C)C(=O)N[C@@H](Cc1c[nH]c2ccccc12)C(=O)N[C@@H](CC(C)C)C(=O)N[C@H](C(=O)N[C@@H](CCCCN)C(=O)NCC(=O)N[C@@H](CCCNC(=N)N)C(=O)NCC(=O)NCC(=O)NCC(=O)NCCCC[C@H](N)C(=O)N1CCSC1)C(C)C [Compound 4844, GLP-1(7-37)-GG-(S)-2,6-diamino-1-(thiazolidin-3-yl)hexan-1-one amide]",DPP-IV resistance (in words),[1]; treated with 0.1 mU DPP-IV,expected product ions were not observed
"CC[C@H](C)[C@H](NC(=O)[C@H](Cc1ccccc1)NC(=O)[C@H](CCC(=O)O)NC(=O)[C@H](CCCCN)NC(=O)[C@H](C)NC(=O)[C@H](C)NC(=O)[C@H](CCC(N)=O)NC(=O)CNC(=O)[C@H](CCC(=O)O)NC(=O)[C@H](CC(C)C)NC(=O)[C@H](Cc1ccc(O)cc1)NC(=O)[C@H](CO)NC(=O)[C@H](CO)NC(=O)[C@@H](NC(=O)[C@H](CC(=O)O)NC(=O)[C@H](CO)NC(=O)[C@@H](NC(=O)[C@H](Cc1ccccc1)NC(=O)[C@@H](NC(=O)CNC(=O)[C@H](CCC(=O)O)NC(=O)[C@H](C)NC(=O)[C@@H](N)Cc1c[nH]cn1)[C@@H](C)O)[C@@H](C)O)C(C)C)C(=O)N[C@@H](C)C(=O)N[C@@H](Cc1c[nH]c2ccccc12)C(=O)N[C@@H](CC(C)C)C(=O)N[C@H](C(=O)N[C@@H](CCCCN)C(=O)NCC(=O)N[C@@H](CCCNC(=N)N)C(=O)NCC(=O)NCC(=O)NCC(=O)NCCCC[C@H](N)C(=O)N1CCSC1C#N)C(C)C (stereo partly drawn) [Compound 4845, GLP-1(7-37)-GG-(S)-2,6-diamino-1-(thiazolidin-2-cyano-3-yl)hexan-1-one amide]",DPP-IV resistance (in words),[1],expected product ions were not observed
"CC[C@H](C)[C@H](NC(=O)[C@H](Cc1ccccc1)NC(=O)[C@H](CCC(=O)O)NC(=O)[C@H](CCCCN)NC(=O)[C@H](C)NC(=O)[C@H](C)NC(=O)[C@H](CCC(N)=O)NC(=O)CNC(=O)[C@H](CCC(=O)O)NC(=O)[C@H](CC(C)C)NC(=O)[C@H](Cc1ccc(O)cc1)NC(=O)[C@H](CO)NC(=O)[C@H](CO)NC(=O)[C@@H](NC(=O)[C@H](CC(=O)O)NC(=O)[C@H](CO)NC(=O)[C@@H](NC(=O)[C@H](Cc1ccccc1)NC(=O)[C@@H](NC(=O)CNC(=O)[C@H](CCC(=O)O)NC(=O)[C@H](C)NC(=O)[C@@H](N)Cc1c[nH]cn1)[C@@H](C)O)[C@@H](C)O)C(C)C)C(=O)N[C@@H](C)C(=O)N[C@@H](Cc1c[nH]c2ccccc12)C(=O)N[C@@H](CC(C)C)C(=O)N[C@H](C(=O)N[C@@H](CCCCN)C(=O)NCC(=O)N[C@@H](CCCNC(=N)N)C(N)=O)C(C)C [GLP-1, reference compound]",metabolic clearance rate,[2],12 to 13 min
